B1: Neg_C (ssRNA)
RNA: CUCAUUCCUACCGACACCCC
modifications: 2'-OMe all, PS all
B2: LSA_In3E3 (ssRNA)
RNA: CCAGUGAGCCGGACUUGCCU
modifications: 2'-OMe all, PS all

Key:
hSSB1 [1] = target: T1, hSSB1 (Homo sapiens, UniProt Q9BQ15 Q9BQ15:1-211); assay: EMSA; 10 mM Tris, 1 mM EDTA, 37C; Table 7 gives 9 nM; conditions: label: FAM
Method: (§1) FIG. 15 is a graphic representation of hSSB1 EMSAs showing increasing concentrations of hSSB1 protein vs. 5 nM of FAM-labeled LSA_In3E3 sequence in either phosphorothioate (PS) or phosphodiester (PD) chemistry, or negative control sequence (Neg_C) in phosphorothioate chemistry. Graphs represent quantification of at least triplicate experiments, expressed as the fraction of oligomer compound bound to the protein. Purified protein was incubated with 5 nM of labeled oligomer compound for 15 min at 37° C. in a buffer consisting of 10 mM Tris-HCl (pH7.5), 100 mM KCl, 0.01% IGEPAL, 1 mM EDTA and 50 ng/μL BSA.
(§2) FAM-labeled non-targeting PS compound, LSA_In3E3, PD compounds, DNA_In3E3 and RNA_In3E3, and a negative control oligomer compound, NEGC, were incubated separately with purified mouse SSB1 (mSSB1), hSSB1 and human SSB2 (hSSB2) proteins.

THOC4 (ALYREF) = THOC4 (ALYREF) (UniProt Q86V81 Q86V81:2-257); assay: EMSA; 10 mM Tris pH 8.0, 100 mM NaCl, 1 mM EDTA, 37C
mSSB1 [2] = target: T2, mSSB1 (Mus musculus, UniProt Q8R2Y9 Q8R2Y9:1-212); assay: EMSA; conditions: label: FAM
Method: as §2

mSSB1 [3] = target: T2, mSSB1; assay: EMSA; 1 mM EDTA, 37C; conditions: label: FAM
Method: as §2

hSSB2 = hSSB2 (Homo sapiens, UniProt Q96AH0 Q96AH0:1-204); assay: EMSA; Tris pH 7.5, 100 mM KCl, 1 mM EDTA, 37C; single EMSA; conditions: label: FAM
Method: FIG. 16 is a graphic representation of a single EMSA showing increasing concentrations of hSSB2 protein vs. 5 nM of FAM-labeled LSA_In3E3 sequence or negative control sequence (Neg_C) in phosphorothioate chemistry. Graphs represent the fraction of oligo bound to the protein. Purified protein was incubated with 5 nM of labeled oligo for 15 min at 37° C. in a buffer consisting of 10 mM Tris-HCl (pH7.5), 100 mM KCl, 0.01% IGEPAL, 1 mM EDTA and 50 ng/μL BSA.
as §2

hSSB1 [4] = target: T1, hSSB1; assay: EMSA; 10 mM Tris, 1 mM EDTA, 37C; Table 7 gives 3 nM; conditions: label: FAM
Method: as §1, §2

T1 sequence (Q9BQ15 whole entry, one chain of several): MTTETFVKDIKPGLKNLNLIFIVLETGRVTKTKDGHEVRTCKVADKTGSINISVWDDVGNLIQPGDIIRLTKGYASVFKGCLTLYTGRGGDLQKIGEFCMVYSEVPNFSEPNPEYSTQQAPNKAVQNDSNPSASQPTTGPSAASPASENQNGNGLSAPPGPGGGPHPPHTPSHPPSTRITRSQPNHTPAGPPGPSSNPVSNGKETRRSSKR
T2 sequence (Q8R2Y9 whole entry, one chain of several): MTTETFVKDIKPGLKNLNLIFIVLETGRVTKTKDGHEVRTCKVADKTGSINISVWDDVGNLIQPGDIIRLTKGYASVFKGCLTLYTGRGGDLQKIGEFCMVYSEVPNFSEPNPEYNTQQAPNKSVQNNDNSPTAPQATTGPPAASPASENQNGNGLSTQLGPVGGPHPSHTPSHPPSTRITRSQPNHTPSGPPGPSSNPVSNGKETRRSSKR
Chain of hSSB2 (Q96AH0 whole entry, one chain of several): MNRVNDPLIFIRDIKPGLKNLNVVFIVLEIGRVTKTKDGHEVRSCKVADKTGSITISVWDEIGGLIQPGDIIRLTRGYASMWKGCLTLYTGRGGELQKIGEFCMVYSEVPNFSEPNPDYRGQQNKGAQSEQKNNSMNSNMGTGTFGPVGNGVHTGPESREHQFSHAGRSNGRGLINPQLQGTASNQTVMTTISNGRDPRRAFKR

| Binder | Kd (hSSB1 [1]) [nM] | Kd (THOC4 (ALYREF)) [nM] | Kd (mSSB1 [2]) [nM] | Kd (mSSB1 [3]) [nM] | binding result (hSSB2) | Kd (hSSB1 [4]) [nM] |
| --- | --- | --- | --- | --- | --- | --- |
| B1 | 10 | 150 | 15.4 |  |  |  |
| B2 |  | 81 |  | 4.13 | binds | 3.29 |

Reference: patent US20200230168, “NUCLEIC ACID OLIGOMERS AND USES THEREFOR” (Queensland University of Technology, published 2020)
